Results from publication PMC8972799.

Molecular target: T1, D-alanyl carrier protein ligase DltA from Staphylococcus aureus Mu50 (S. aureus) (UniProt P68876)
T1 sequence: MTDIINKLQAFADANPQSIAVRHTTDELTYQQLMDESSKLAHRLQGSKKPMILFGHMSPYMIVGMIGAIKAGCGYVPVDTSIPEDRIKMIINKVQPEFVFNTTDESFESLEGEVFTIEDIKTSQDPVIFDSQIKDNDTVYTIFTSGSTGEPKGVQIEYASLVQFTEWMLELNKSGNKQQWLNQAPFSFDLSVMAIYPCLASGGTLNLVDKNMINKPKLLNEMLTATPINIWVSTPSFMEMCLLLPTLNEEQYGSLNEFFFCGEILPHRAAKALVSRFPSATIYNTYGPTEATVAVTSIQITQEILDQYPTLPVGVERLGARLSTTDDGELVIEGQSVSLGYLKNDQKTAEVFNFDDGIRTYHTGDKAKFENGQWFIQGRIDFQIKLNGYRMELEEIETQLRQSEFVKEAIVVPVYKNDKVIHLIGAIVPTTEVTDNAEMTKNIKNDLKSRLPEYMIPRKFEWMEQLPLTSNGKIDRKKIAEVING

B1: wild-type S. aureus DltC, Ppant-modified (natural protein)
chain: MEFREQVLNLLAEVAENDIVKENPDVEIFEEGIIDSFQTVGLLLEIQNKLDIEVSIMDFDRDEWATPNKIVEALEELR
modifications: 4'-phosphopantetheinyl (Ppant) group at Ser36
- adenylation activity of SaDltA (5 µM; initial rate, pyrophosphate-detection assay, 5 mM D-alanine) in the presence of 300 µM wild-type SaDltC, against SaDltA alone: 7.2 fold
